Experimental data: US7700353B2, “Compositions and methods for inducing apoptosis in tumor cells” (E-P Therapeutics, Inc., priority 1998, dated 2010)

Columns and labels:
[1] = test system: SK-N-F1 neuroblastoma cells; assay: Neurite-like process outgrowth / morphological differentiation; assay type: cell-based, human
Experimental: Cells under various treatment conditions were maintained at 37° C. in a 5% CO2 incubator and observed from 30 minutes to 72 hours after incubation (synthetic human Ea- and Eb-peptide were chemically synthesized at the Biotechnology Center, University of Connecticut). For treatment with synthetic hEa, hEb peptide or hlGF-I, 1×10^5 cells were plated in each well of a 12-well culture plate in DMEM/F12 (1:1) supplemented with 0.4-3.2 µM of synthetic hEa-, hEb-peptide and/or 5-10 nM of hlGF-I.
Neuroblastoma SK-N-F1 cells (10^5) were seeded into 12-well culture plates in DMEM/F12 (1:1) supplemented with 0-3.2 µM of synthetic hEb-peptide, or buffer control, and incubated at 37° C. in a 5% CO2 humidified incubator.
Cell images were taken by random sampling at various time points using a MicroMAX CCD camera (Princeton Instruments, Bozeman, Mont.). Approximately 1000 cells were analyzed from each treatment, carried out in triplicate. Cells with neurites longer than one cell body diameter (>20 µm for SK-N-F1 cells) were scored as positive neurite-bearing (Fagerstrom, et al., Cell Growth Differ., 7: 775-85, 1996; Morrione, et al., Cancer Res. 60: 2263-72, 2000). The percentage of neurite-bearing cells and the respective length of neurites were measured with reference to a stage micrometer and analyzed using the public domain NIH Image program (developed at the U.S. National Institutes of Health and available on the Internet at http://rsb.info.nih.gov/nih-image).
To further characterize the dose-response relationship and time course of hEb peptide in inducing neurite-like process outgrowth, SK-N-F1 neuroblastoma cells were treated with various amounts (0 to 3.2 µM) of hEb peptide over a course of 72 hours. Images of cells were taken by random sampling after 1 h, 6 h, 24 h, 48 h and 72 h of incubation (see FIG. 11B). The average length of neurite-like process outgrowth was measured by random sampling of more than 1000 cells at various time points. The neurite-like processes started to be visible as early as 0.5-1 hour after the addition of hEb peptide. The effect of hEb peptide in inducing neurite-like outgrowth was dose-dependent, as evident from a comparison of cells treated with 0.4 µM hEb peptide with those treated with 0.8-3.2 µM hEb peptide over 24-72 hours. The maximum effect of hEb peptide was observed 48 hours after the addition of 3.2 µM hEb peptide, with an average neurite length of 50 to 60 µm (Table 1, below).

[2] = test system: CCD-1112SK primary baby foreskin cells
Text: Apoptosis of cells can also be detected by terminal deoxynucleotidyl transferase mediated dUTP nick end labeling (TUNEL) assay.

[3] = test system: MDA-MB-231 (C) cells; assay: Apoptosis observed under microscope; assay type: cell-based, human; details: about 1.5 μM, about two hours
Experimental: FIG. 21 depicts apoptosis in MDA-MB-231 cells induced by rtEa4-peptide. MDA-MB-231 cells treated with about 1.5 μM of rtEa4-peptide (A, B, and C) or control peptide (D) for about two hours and observed under a microscope. Arrows indicate apoptotic cells.
Killing of cancer cells by E-peptide could be the consequence of apoptosis or necrosis. To differentiate these two possibilities, MDA-MB-231 (C) cells were grown in culture in the presence of about 1.5 μM of trout Ea4-peptide. After about two hours of incubation the cells were observed under a microscope. […] FIG. 22 presents the results of the effect of trout Ea4-peptide on induction of apoptosis in ovarian cancer cells (SKOV-3).

[4] = test system: MDA-MB-231(C); assay: Induction of apoptosis (TUNEL assay); assay type: cell-based, human; details: about 1.5 μM, two to three days
Experimental: FIG. 23 depicts induction of apoptosis in MDA-MB-231 cells by rtEA4-peptide. MDA-MB-231 cells were treated wit control protein or rtEa4-peptide (about 1.5 μM) for two days, and three days, and were then subjected to TUNEL assay. (A) Treatment with rtEa4-peptide for two days; (B) Treatment with rtEa-4-peptide for three days.
FIG. 24 depicts the effect of rtEa4-peptide on induction of apoptosis in MDA-MB-231 cells treated with rtEa4-peptide. (A) Detection of apoptosis by TUNEL assay; (B) Detection of apoptosis y detecting the induction of the activated caspase-3 activity. MDA-MB-231 cells were treated with about 1.5 μM of rtEa4-peptide for about 48 hours, fixed and subjected to TUNEL assay or stained with anti-human activated caspase-3 serum conjugated with rhodamine. Hydrogen peroxide (H2O2), 0.5 mM, was used to induce apoptosis as a positive control.

B1: hEb: chemically synthesized human Eb peptide of pro-IGF-I, 77 amino acid residues (SEQ ID NO:1) (peptide, listed as Homo sapiens)
chain: RSVRAQRHTDMPKTQKYQPPSTNKNTKSQRRKGWPKTHPGGEQKEGTEASLQIRGKKKEQRREIGSRNAECRGKKGK
How did the Neurite length ([1]; 0.4 μM, 6 h) turn out when B1 was run?
The Neurite length was 31 ± 7.6 μm.

What about the Neurite length ([1]; 0.4 μM, 24 h) of the same molecule?
Its Neurite length is 29 ± 5.2 μm.

And the Neurite length ([1]; 0.4 μM, 48 h)?
Its Neurite length is 35 ± 0.9 μm.

And the Neurite length ([1]; 0.4 μM, 72 h)?
Its Neurite length is 32 ± 3.1 μm.

And the Neurite length ([1]; 0.8 μM, 2 h)?
Its Neurite length is 33 ± 2.1 μm.

What about the Neurite length ([1]; 0.8 μM, 6 h) of the same molecule?
The Neurite length was 36 ± 0.6 μm.

What about the Neurite length ([1]; 0.8 μM, 24 h) of the same molecule?
The Neurite length was 38 ± 3.9 μm.

And the Neurite length ([1]; 0.8 μM, 48 h)?
Its Neurite length is 43 ± 1.0 μm.

And the Neurite length ([1]; 0.8 μM, 72 h)?
The Neurite length was 41 ± 2.5 μm.

And the morphological change ([1]; 1.6 μM or 3.2 μM)?
The morphological change was “differentiated into a neuron-like morphology”.

What about the Neurite length ([1]; 1.6 μM, 6 h) of the same molecule?
Its Neurite length is 38 ± 3.5 μm.

And the Neurite length ([1]; 1.6 μM, 24 h)?
Its Neurite length is 39 ± 1.8 μm.

And the Neurite length ([1]; 1.6 μM, 48 h)?
Its Neurite length is 47 ± 3.9 μm.

What about the Neurite length ([1]; 1.6 μM, 72 h) of the same molecule?
Its Neurite length is 48 ± 2.8 μm.

And the Neurite length ([1]; 3.2 μM, 6 h)?
The Neurite length was 39 ± 2.2 μm.

And the Neurite length ([1]; 3.2 μM, 24 h)?
The Neurite length was 45 ± 1.7 μm.

What about the Neurite length ([1]; 3.2 μM, 48 h) of the same molecule?
Its Neurite length is 52 ± 3.7 μm.

What about the Neurite length ([1]; 3.2 μM, 72 h) of the same molecule?
Its Neurite length is 48 ± 2.7 μm.

And the “time at which neurite-like processes started to be visible” value ([1]; after addition of peptide)?
The value was 0.5 to 1 h.

And the “increase in the percentage of neurite-bearing cells” value ([1]; hEb-peptide combined with mature hIGF-I, 1-4 hours after stimulation)?
The value was 20-30%.

What about the “in vitro effective concentration” value ([1]; synthetic peptide) of the same molecule?
The value was 0.4 to 3.2 µM.

What about the Apoptosis [2] of the same molecule?
Its Apoptosis is “−”.

B2: rtEa-4: recombinant Ea-4 peptide of rainbow trout pro-IGF-I, 74 amino acid residues (SEQ ID NO: 2) (protein)
chain: RSVRAQRHTDMPRTPKVSTAVQNVDRGTERRTAQHPDKTKTKKKPLSGHSHPSCKEVHQKNSSRGNTGGRNYRM
modifications: Oncorhynchus mykiss
Which results are given for B2?
apoptosis (microscopy) [3]: going through apoptosis; TUNEL staining [4]: TUNEL staining positive
